Reference: the supplement of paper PMC11865577

System: TO-N3 (biotin conjugate)
Test: pull-down binding Z-score (relative to library population); higher = stronger binding
Conditions: RNA library: Library-2
Summary of the method: (§1)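 Binding is given as a Z-score against the library mean and standard deviation, calculated after removing the beads-only signal and averaging barcoded replicate probes without their highest and lowest values. Cy5- or Cy3-end-labelled RNA library (1 μg) was heat-folded in phosphate/NaCl/KCl buffer and incubated 60 min at 25 °C with streptavidin beads bearing 100 pmol of biotin-conjugated small molecule. After three washes, RNA eluted in hot SDS was hybridised to a DNA barcode microarray for 20 h at 55.5 °C.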

Sequence | pull-down binding Z-score
CGCUAGUAGUGGCG [hsa-mir-3960] | -0.435
CGCUGAUGUGCAUUCAACUCAUUCUCAGCA [hsa-mir-1468] | 0.0154
CGCUGCCUGGAAUUAACCCCGCUGUG [hsa-mir-636] | 0.517
CGCUGCUGGCUGCCUUCCAGCG [hsa-mir-4533] | 0.079
CGGAAUUCUCCAGAGCCUCUG [hsa-mir-6889] | 0.453
CGGACACCCGGCCUCCACUUUCUGUGGCAGGUACCUCCUCCA [hsa-mir-4505] | 1.05
CGGACGUUGCUCUCUACCCCG [hsa-mir-1247] | 0.839
CGGAGCAGUCACGUUGACGGAAUCCUCCG [hsa-mir-3183] | 0.329
CGGAGCCUCGCAGGGUCGGGCUCGGGCUCCCUAACCGUCUCCGCUUCUUC [hsa-mir-6084] | 1.36
CGGAUCUCGAGGGUGCUUAUUGUUCGGUCCG [hsa-mir-615] | 0.185
CGGCGGCGGCGGCGGCGGCGGCGGCGGCGGCGGCGGCGGCGGCGGCGG [G4_r(CGG)16] | 6.82
CGGGAACCUGCCUCCCG [hsa-mir-596] | 0.0562
CGGGCCCCUCCCCUCAAUGGGCCCG [hsa-mir-5685] | -0.493
CGGGCUGAUUGCGCUAACAGUGGCCCC [hsa-mir-4783] | 0.248
CGGGGCGGACGCAGAGCCGCGUUUAGUCUAUCG [hsa-mir-639] | 0.593
CGGGGGGGGCCCGGGGACGGCUUGGGCCUGCCUAGUCGG [hsa-mir-1234] | 2.73
CGGUACCCACUGCUGAGGGUGGGGACCA [hsa-mir-3691] | 0.55
CGGUCCCAUAUUGAACUCG [hsa-mir-4444-1_4444-2] | -0.4
CGGUCGGAUAAUCACAUGACGAG [hsa-mir-2114] | -0.0316

Sequence | pull-down binding Z-score
CGGUGGUCCCUCCCG [hsa-mir-3687-1_3687-2] | 0.14
CGGUGUGCAAAUGUGUGUGUGCGGUGUUAUGCCG [hsa-mir-4442] | -0.869
CGUACGCUUUAUCUGUGACGUAUG [hsa-mir-411] | -0.611
CGUAGGCGUUAUGAUUUCUGACCUAUG [hsa-mir-379] | 0.0365
CGUAUGUGUAUAUAAAUGUAUACG [hsa-mir-1277] | -1.29
CGUGCAAGUUUAAGUUUUUGCACG [hsa-mir-4445] | 0.282
CGUGCACGUACCUGUCACAUGUGUACG [hsa-mir-3939] | -0.867
CGUGCGCCAGUGGAG [hsa-mir-6089-2_6089-1] | 0.573
CGUGCUCAGCUUGGCACCCAAGUUCUGC [hsa-mir-7704] | 0.485
CGUUCCAAUGCGACACCUCUAGAGUGUCAUCCCCUAGAAUGUCACCUUGGAAAG [hsa-mir-4432] | -0.0844
CGUUCGCUUUAUUUAUGGCGCACA [hsa-mir-323a] | -0.267
CGUUGAGUGGGCACCCGAGAAGCCAUCG [hsa-mir-425] | 0.583
CGUUUAGUAGAUGAUUGUGCAUUGUUUCAAAAUG [hsa-mir-224] | -0.502
CUAAAUGGUACCCACUUUAUUUAG [hsa-mir-5687] | -0.76
CUAACAGGCCCCUGUCACCAUUAG [hsa-mir-5579] | -0.073
CUAAGCUAUGGACUGCUAUGGACUGCUAG [hsa-mir-4473] | 0.172
CUAAUCUCUUAGCACUGAAGAUUAG [hsa-mir-4671] | -0.125
CUACAUCGUGGAAGCCAGCACCAUGCAG [hsa-mir-455] | 0.826
CUACUAGUUUGUAGUAGUUCGUAGCAG [hsa-mir-3919] | -0.197

Sequence | pull-down binding Z-score
CUACUCAAGGCUAG [hsa-mir-4266] | 1.35
CUAGUAUGUCUCAUCCCCUACUAG [hsa-mir-151a] | -0.343
CUAUCCUUCCCUUGGAAAAUGAUCUGAG [hsa-mir-4770] | -0.245
CUAUGGCCCCCCUCCUCUCUGAAAGCAAGGCCACUUG [hsa-mir-8081] | 0.738
CUAUUCAGAAAUGUGGCCUGUGAUUAG [hsa-mir-1295a] | -0.0755
CUCAACUCUUGGUCCUCUGAG [hsa-mir-3165] | -0.316
CUCAAGUCCUCUAUUUCUUUGAA [hsa-mir-7978] | -0.484
CUCAAUGUAGUCUUGUAAGGAACAGGUUGAAG [hsa-mir-595] | 0.268
CUCACAUGGAGUAAAAUAUGAU [hsa-mir-3134] | 0.711
CUCACCAUAGUGGUGGA [hsa-mir-1288] | -0.412
CUCACGUGUGCCUGCCUGUGAG [hsa-mir-339] | -0.555
CUCACUGCAGAAUUAUUUUGAG [hsa-mir-4524a] | -0.869
CUCAGAGGGCUGAAGUGGUUGUGGGGAGGGGCUUCUGGG [hsa-mir-4296] | 4.83
CUCAGCAUGUUGAGCCCUGUCUCUGGGGAGCUGAC [hsa-mir-6505] | 0.597
CUCAGCCUGGAAAAAGCUGAG [hsa-mir-4765] | -0.672
CUCAGGAAUUGGAUAAGCUUUUCUGAG [hsa-mir-5194] | -0.399
CUCAGGACAGCGGGUGUCAGCUUGCCUGAC [hsa-mir-6859-1_6859-3_6859-2_6859-4] | 1.12
CUCAUGAUAUGUUUGCCCCAUCAGCGUGUCACGAG [hsa-mir-3616] | -0.0894

System: TO-3-N3 (biotin conjugate)
Test: as above
Conditions: RNA library: Library-2
Summary of the method: as §1

Sequence | pull-down binding Z-score
CGCUAGUAGUGGCG [hsa-mir-3960] | -0.152
CGCUGAUGUGCAUUCAACUCAUUCUCAGCA [hsa-mir-1468] | -0.116
CGCUGCCUGGAAUUAACCCCGCUGUG [hsa-mir-636] | 0.493
CGCUGCUGGCUGCCUUCCAGCG [hsa-mir-4533] | 0.221
CGGAAUUCUCCAGAGCCUCUG [hsa-mir-6889] | 0.188
CGGACACCCGGCCUCCACUUUCUGUGGCAGGUACCUCCUCCA [hsa-mir-4505] | 0.675
CGGACGUUGCUCUCUACCCCG [hsa-mir-1247] | 0.389
CGGAGCAGUCACGUUGACGGAAUCCUCCG [hsa-mir-3183] | 0.234
CGGAGCCUCGCAGGGUCGGGCUCGGGCUCCCUAACCGUCUCCGCUUCUUC [hsa-mir-6084] | 0.896
CGGAUCUCGAGGGUGCUUAUUGUUCGGUCCG [hsa-mir-615] | 0.418
CGGCGGCGGCGGCGGCGGCGGCGGCGGCGGCGGCGGCGGCGGCGGCGG [G4_r(CGG)16] | 8.23
CGGGAACCUGCCUCCCG [hsa-mir-596] | 0.264
CGGGCCCCUCCCCUCAAUGGGCCCG [hsa-mir-5685] | -0.255
CGGGCUGAUUGCGCUAACAGUGGCCCC [hsa-mir-4783] | -0.256
CGGGGCGGACGCAGAGCCGCGUUUAGUCUAUCG [hsa-mir-639] | 0.0365
CGGGGGGGGCCCGGGGACGGCUUGGGCCUGCCUAGUCGG [hsa-mir-1234] | 2.08
CGGUACCCACUGCUGAGGGUGGGGACCA [hsa-mir-3691] | 0.628
CGGUCCCAUAUUGAACUCG [hsa-mir-4444-1_4444-2] | -0.626
CGGUCGGAUAAUCACAUGACGAG [hsa-mir-2114] | -0.513

Sequence | pull-down binding Z-score
CGGUGGUCCCUCCCG [hsa-mir-3687-1_3687-2] | 0.0703
CGGUGUGCAAAUGUGUGUGUGCGGUGUUAUGCCG [hsa-mir-4442] | -0.732
CGUACGCUUUAUCUGUGACGUAUG [hsa-mir-411] | -0.61
CGUAGGCGUUAUGAUUUCUGACCUAUG [hsa-mir-379] | -0.513
CGUAUGUGUAUAUAAAUGUAUACG [hsa-mir-1277] | -0.965
CGUGCAAGUUUAAGUUUUUGCACG [hsa-mir-4445] | 0.314
CGUGCACGUACCUGUCACAUGUGUACG [hsa-mir-3939] | -0.72
CGUGCGCCAGUGGAG [hsa-mir-6089-2_6089-1] | 0.0799
CGUGCUCAGCUUGGCACCCAAGUUCUGC [hsa-mir-7704] | -0.129
CGUUCCAAUGCGACACCUCUAGAGUGUCAUCCCCUAGAAUGUCACCUUGGAAAG [hsa-mir-4432] | -0.119
CGUUCGCUUUAUUUAUGGCGCACA [hsa-mir-323a] | -0.155
CGUUGAGUGGGCACCCGAGAAGCCAUCG [hsa-mir-425] | 0.0191
CGUUUAGUAGAUGAUUGUGCAUUGUUUCAAAAUG [hsa-mir-224] | -0.714
CUAAAUGGUACCCACUUUAUUUAG [hsa-mir-5687] | -0.627
CUAACAGGCCCCUGUCACCAUUAG [hsa-mir-5579] | -0.463
CUAAGCUAUGGACUGCUAUGGACUGCUAG [hsa-mir-4473] | -0.193
CUAAUCUCUUAGCACUGAAGAUUAG [hsa-mir-4671] | 0.0266
CUACAUCGUGGAAGCCAGCACCAUGCAG [hsa-mir-455] | 0.731
CUACUAGUUUGUAGUAGUUCGUAGCAG [hsa-mir-3919] | -0.438

Sequence | pull-down binding Z-score
CUACUCAAGGCUAG [hsa-mir-4266] | 1.32
CUAGUAUGUCUCAUCCCCUACUAG [hsa-mir-151a] | -0.144
CUAUCCUUCCCUUGGAAAAUGAUCUGAG [hsa-mir-4770] | -0.188
CUAUGGCCCCCCUCCUCUCUGAAAGCAAGGCCACUUG [hsa-mir-8081] | 0.3
CUAUUCAGAAAUGUGGCCUGUGAUUAG [hsa-mir-1295a] | -0.00311
CUCAACUCUUGGUCCUCUGAG [hsa-mir-3165] | -0.385
CUCAAGUCCUCUAUUUCUUUGAA [hsa-mir-7978] | -0.712
CUCAAUGUAGUCUUGUAAGGAACAGGUUGAAG [hsa-mir-595] | -0.166
CUCACAUGGAGUAAAAUAUGAU [hsa-mir-3134] | 0.744
CUCACCAUAGUGGUGGA [hsa-mir-1288] | -0.33
CUCACGUGUGCCUGCCUGUGAG [hsa-mir-339] | -1.01
CUCACUGCAGAAUUAUUUUGAG [hsa-mir-4524a] | -0.62
CUCAGAGGGCUGAAGUGGUUGUGGGGAGGGGCUUCUGGG [hsa-mir-4296] | 4.7
CUCAGCAUGUUGAGCCCUGUCUCUGGGGAGCUGAC [hsa-mir-6505] | 0.254
CUCAGCCUGGAAAAAGCUGAG [hsa-mir-4765] | -0.454
CUCAGGAAUUGGAUAAGCUUUUCUGAG [hsa-mir-5194] | -0.212
CUCAGGACAGCGGGUGUCAGCUUGCCUGAC [hsa-mir-6859-1_6859-3_6859-2_6859-4] | 0.665
CUCAUGAUAUGUUUGCCCCAUCAGCGUGUCACGAG [hsa-mir-3616] | -0.104

System: TO-3-N3-2 (biotin conjugate)
Test: as above
Conditions: RNA library: Library-2
Summary of the method: as §1

Sequence | pull-down binding Z-score
CGCUAGUAGUGGCG [hsa-mir-3960] | -0.644
CGCUGAUGUGCAUUCAACUCAUUCUCAGCA [hsa-mir-1468] | -0.226
CGCUGCCUGGAAUUAACCCCGCUGUG [hsa-mir-636] | -0.249
CGCUGCUGGCUGCCUUCCAGCG [hsa-mir-4533] | -0.568
CGGAAUUCUCCAGAGCCUCUG [hsa-mir-6889] | 0.0162
CGGACACCCGGCCUCCACUUUCUGUGGCAGGUACCUCCUCCA [hsa-mir-4505] | 0.209
CGGACGUUGCUCUCUACCCCG [hsa-mir-1247] | 0.262
CGGAGCAGUCACGUUGACGGAAUCCUCCG [hsa-mir-3183] | -0.255
CGGAGCCUCGCAGGGUCGGGCUCGGGCUCCCUAACCGUCUCCGCUUCUUC [hsa-mir-6084] | 0.558
CGGAUCUCGAGGGUGCUUAUUGUUCGGUCCG [hsa-mir-615] | 0.219
CGGCGGCGGCGGCGGCGGCGGCGGCGGCGGCGGCGGCGGCGGCGGCGG [G4_r(CGG)16] | 9.63
CGGGAACCUGCCUCCCG [hsa-mir-596] | -0.195
CGGGCCCCUCCCCUCAAUGGGCCCG [hsa-mir-5685] | -0.162
CGGGCUGAUUGCGCUAACAGUGGCCCC [hsa-mir-4783] | -0.117
CGGGGCGGACGCAGAGCCGCGUUUAGUCUAUCG [hsa-mir-639] | -0.137
CGGGGGGGGCCCGGGGACGGCUUGGGCCUGCCUAGUCGG [hsa-mir-1234] | 1.32
CGGUACCCACUGCUGAGGGUGGGGACCA [hsa-mir-3691] | -0.291
CGGUCCCAUAUUGAACUCG [hsa-mir-4444-1_4444-2] | -0.418
CGGUCGGAUAAUCACAUGACGAG [hsa-mir-2114] | -0.221
CGGUGGUCCCUCCCG [hsa-mir-3687-1_3687-2] | -0.108
CGGUGUGCAAAUGUGUGUGUGCGGUGUUAUGCCG [hsa-mir-4442] | -0.663
CGUACGCUUUAUCUGUGACGUAUG [hsa-mir-411] | -0.338
CGUAGGCGUUAUGAUUUCUGACCUAUG [hsa-mir-379] | -0.261
CGUAUGUGUAUAUAAAUGUAUACG [hsa-mir-1277] | -0.547
CGUGCAAGUUUAAGUUUUUGCACG [hsa-mir-4445] | -0.0878
CGUGCACGUACCUGUCACAUGUGUACG [hsa-mir-3939] | -0.599
CGUGCGCCAGUGGAG [hsa-mir-6089-2_6089-1] | -0.139
CGUGCUCAGCUUGGCACCCAAGUUCUGC [hsa-mir-7704] | -0.12
